Experimental data reported in the supplement of paper PMC10201428.
± gives the standard deviation of the averaged measurements.

Columns and labels:
[1] = test system: VchCAST RNA-guided transposition machinery (E. coli BL21(DE3) host, lacZ target); assay: relative integration efficiency (T-RL orientation) vs wild-type transposon end (log2 (normalized fold change)); transposon end mutated: right end (5 bp flank + 75 bp right end); higher = more efficient transposition
In short: (§1)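 Relative integration efficiency is a fold change of output over input barcode abundance, normalised to reference barcodes and log-transformed. Input plasmids and genomic integration junctions were PCR-amplified and Illumina-sequenced from E. coli BL21(DE3) co-transformed with a T7-driven effector plasmid and pUC57 donor pools of 1549 left-end or 1849 right-end transposon variants. Plating was done with 0.1 mM IPTG at 37°C for 18 h, with two biological output replicates and four reference barcodes.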

[2] = test system: VchCAST RNA-guided transposition machinery (E. coli BL21(DE3) host, lacZ target); assay: relative integration efficiency (T-LR orientation) vs wild-type transposon end (log2 (normalized fold change)); transposon end mutated: right end (5 bp flank + 75 bp right end); higher = more efficient transposition
In short: as §1

ACATTTGTTGATACAACCATCAAATGGTAATTACACCCATAAATTGATAATTATCACACCCAATTTAACTATAACGCTCTGATCATAGTCAGACCAACATTGCTACGACCCGTATTCGCACCGACAC
relative integration efficiency (log2) [1]: -0.349 ± 0.42 | relative integration efficiency (log2) [2]: 2.24 ± 0.09

ACATTTGTTGATACAACCATAAAATGATAATAACACCCATAAATTGATAATAATCACACCCATAAATTGATATTCCCTCTGATCATAGTCAGACCAACATTGCTACGACCCGTATTCGCACCGACAC
relative integration efficiency (log2) [1]: -0.389 ± 0.15 | relative integration efficiency (log2) [2]: -0.098 ± 0.26

ACATTTCTTCATACAACCATAAAATGATAATTACACCCATAAATTCATAATTATCACACCCAATTTAACTATAACGCTCTGATCATAGTCAGACCAACATTGCTACGACCCGTATTCGCACCGACAC
relative integration efficiency (log2) [1]: -5.24 ± 0.61 | relative integration efficiency (log2) [2]: -3.54 ± 2.7

ACATTTGTTGATACAACCATATAATGATAATAACACCAATAAAATGATAATTATCACACCCAATTTAACTATAACGCTCTGATCATAGTCAGACCAACATTGCTACGACCCGTATTCGCACCGACAC
relative integration efficiency (log2) [1]: -1.09 ± 0.33 | relative integration efficiency (log2) [2]: 1.887 ± 0.0053

ACATTTGTTGATACAACCATTAAATGATAATTACACCCATAATTTGATAATTATCACACCCAATTTAACTATAACGCTCTGATCATAGTCAGACCAACATTGCTACGACCCGTATTCGCACCGACAC
relative integration efficiency (log2) [1]: -0.76 ± 0.025 | relative integration efficiency (log2) [2]: 2.23 ± 0.16

ACATTTGTTGATACAACCATAAAATGATAATTAATAATTATTTATAATCAGCAACTTAACCCACCCATAAATTGATAATTATCACACCCATAAATTGATATTGCCTCTGATCATAGTCAGACCAACA
relative integration efficiency (log2) [1]: -3.06 ± 0.43 | relative integration efficiency (log2) [2]: 0.044 ± 0.09

ACATTAGTTCATACAACCATAAAATGATAATTACACCCATAAATTCATCATTATCACACCCAATTTAACTATAACGCTCTGATCATAGTCAGACCAACATTGCTACGACCCGTATTCGCACCGACAC
relative integration efficiency (log2) [1]: -7.69 ± 0.13 | relative integration efficiency (log2) [2]: -5.32 ± 0.75

ACATTTGTTGATACAACCATAAAATGATTTAATCACCCATAAATTGATTTAATTCACACCCATAAATTGATTAACGCTCTGATCATAGTCAGACCAACATTGCTACGACCCGTATTCGCACCGACAC
relative integration efficiency (log2) [1]: -1.13 ± 0.18 | relative integration efficiency (log2) [2]: -0.00841 ± 0.34

ACATTTGTTGATACACCCATAAATTGATAATTACAACCATAAAATGATAATTATCACACCCATAAATTGATAATTACTCTGATCATAGTCAGACCAACATTGCTACGACCCGTATTCGCACCGACAC
relative integration efficiency (log2) [1]: -0.421 ± 0.15 | relative integration efficiency (log2) [2]: -0.234 ± 0.37

ACATTTGTTGATATAATTATCATTTTATGGTTGTAATTATCATTTTATGGTTGTCATAATTATCATTTTATGGTTGCTCTGATCATAGTCAGACCAACATTGCTACGACCCGTATTCGCACCGACAC
relative integration efficiency (log2) [1]: -6.26 ± 0.22 | relative integration efficiency (log2) [2]: -6.39 ± 2.5

ACATTTGTTGATACAACCATAAAATGATAATTACACCCATAAATTGATAATTATCACACCCATAACGGTCGCGGTAAGAGGATCATAGTCAGACCAACATTGCTACGACCCGTATTCGCACCGACAC
relative integration efficiency (log2) [1]: -0.752 ± 0.12 | relative integration efficiency (log2) [2]: 2.14 ± 0.13

CAAAATGTAAAAAAAACCATACGTTGATTTTACGAAACCATACGCTGAAATAAAAACAACCATACCTTGAAATTGCTTATGATCATAGTCAGACCAACATTGCTACGACCCGTATTCGCACCGACAC
relative integration efficiency (log2) [1]: -6.15 ± 0.21 | relative integration efficiency (log2) [2]: -4.98 ± 2.3

ACATTGGTCGATACAACCATAAAATGATAATTACACCCATAAATTGATCATTATCACACCCAATTTAACTATAACGCTCTGATCATAGTCAGACCAACATTGCTACGACCCGTATTCGCACCGACAC
relative integration efficiency (log2) [1]: -7.023 ± 0.019 | relative integration efficiency (log2) [2]: -5.922 ± 0.042

ACATTTGTTGATACACCCATAAATTGATATTGCCACCCATAAATTGATAATTATCACAACCATAAAGTGATATTTACTCTGATCATAGTCAGACCAACATTGCTACGACCCGTATTCGCACCGACAC
relative integration efficiency (log2) [1]: -0.75 ± 0.089 | relative integration efficiency (log2) [2]: -0.376 ± 0.6

ACATTTGTTGATACACCCATAAATTGATAATTACACCCATAAATTGATAATTATCACAACCATAAAGTGATATTTACTCTGATCATAGTCAGACCAACATTGCTACGACCCGTATTCGCACCGACAC
relative integration efficiency (log2) [1]: -0.445 ± 0.034 | relative integration efficiency (log2) [2]: -0.01 ± 0.22

ACATTTGTTGATACAACCATAAAATGATAATTAATAATTATTTATAATCAGCAACTTAACCACAAAACACCCATAAATTGATAATTAACAAAACACCCATAAATTGATATTGCCTCTGATCATAGTC
relative integration efficiency (log2) [1]: -5.1 ± 0.59 | relative integration efficiency (log2) [2]: < -10

ACATTTGTTGATACAACCATCAAATGATAATTCCACCCATACATTGATAATTATCACACCCAATTTAACTATAACGCTCTGATCATAGTCAGACCAACATTGCTACGACCCGTATTCGCACCGACAC
relative integration efficiency (log2) [1]: -3.05 ± 0.042 | relative integration efficiency (log2) [2]: -0.154 ± 0.093

ACATTTGTTGATACAACCATAAAATGATACGGCCACCCATAAATTGATAATTATCACACCCATAAATTGATATTGCCTCTGATCATAGTCAGACCAACATTGCTACGACCCGTATTCGCACCGACAC
relative integration efficiency (log2) [1]: -0.7776 ± 0.00016 | relative integration efficiency (log2) [2]: -0.393 ± 0.37

ACATTTGTTGATACACCCATAAATTGATATTGCCACCCATAAATTGATAATTATCACACCCATAAATTGATATTGCCTCTGATCATAGTCAGACCAACATTGCTACGACCCGTATTCGCACCGACAC
relative integration efficiency (log2) [1]: -0.842 ± 0.076 | relative integration efficiency (log2) [2]: -0.216 ± 0.095

ACATTTGTTGATACCACCATCAAATGGTAATTACACCCATACATTGATAATTATCACACCCAATTTAACTATAACGCTCTGATCATAGTCAGACCAACATTGCTACGACCCGTATTCGCACCGACAC
relative integration efficiency (log2) [1]: -5.6 ± 0.15 | relative integration efficiency (log2) [2]: -2.98 ± 0.51

ACATTTGTTGATACAACCATAAAATGATAATTACCAAACGCCCGGTCGCCGGCGACACAAACGCCCGGTCGCGGTAAGAGGATCATAGTCAGACCAACATTGCTACGACCCGTATTCGCACCGACAC
relative integration efficiency (log2) [1]: -1.94 ± 0.27 | relative integration efficiency (log2) [2]: 0.864 ± 0.055

ACATTTGTTGATACAACCAATAAAAGATTATTACCCCCATTAATTGATAATGATGACACCGAATTTAACTATAACGCTCTGATCATAGTCAGACCAACATTGCTACGACCCGTATTCGCACCGACAC
relative integration efficiency (log2) [1]: -4.62 ± 0.48 | relative integration efficiency (log2) [2]: -1.84 ± 0.29

ACATTTGTGGATACAACCATAAAACGATAATTACACCCATAAATTGATCATTATCACACCCAATTTAACTATAACGCTCTGATCATAGTCAGACCAACATTGCTACGACCCGTATTCGCACCGACAC
relative integration efficiency (log2) [1]: -1.43 ± 0.24 | relative integration efficiency (log2) [2]: 2.1 ± 0.088

ACATTTGTTGATACAACCATAAAATGATAATTAGTGGCATAAATTGATAATTATCACACCCATAAATTGATATTGCCTCTGATCATAGTCAGACCAACATTGCTACGACCCGTATTCGCACCGACAC
relative integration efficiency (log2) [1]: -1.91 ± 0.16 | relative integration efficiency (log2) [2]: -1.87 ± 0.24

ACATTTGTTGATACAACCATAAAATGATAATTAATAATTATTTATAATCAGCAACTTAACCACAAACACCCATAAATTGATAATTATCAACAAACGCCCGGTCGCGGTACTCTGATCATAGTCAGAC
relative integration efficiency (log2) [1]: -3.5 ± 0.52 | relative integration efficiency (log2) [2]: -0.33 ± 0.047

ACATTTGTTGATACAACCATAAAGTGATATTTACAACCATAAAGTGATATTTATCACACCCATAAATTGATAATTACTCTGATCATAGTCAGACCAACATTGCTACGACCCGTATTCGCACCGACAC
relative integration efficiency (log2) [1]: 0.0651 ± 0.0083 | relative integration efficiency (log2) [2]: 0.289 ± 0.082

ACATTTGTTGATACAACCATAAAAGGATCATTACACCCATAAATTGATAATTATCACACCCCATTTAACTATAACGCTCTGATCATAGTCAGACCAACATTGCTACGACCCGTATTCGCACCGACAC
relative integration efficiency (log2) [1]: -2.29 ± 0.32 | relative integration efficiency (log2) [2]: 1.27 ± 0.23

ACATTTGTTGATACAACCATATATTGATATCTCCACCCATAAATTGATAATTATCACAACCATATATTGATATCTCCTCTGATCATAGTCAGACCAACATTGCTACGACCCGTATTCGCACCGACAC
relative integration efficiency (log2) [1]: -0.13 ± 0.1 | relative integration efficiency (log2) [2]: -0.00761 ± 0.26

ACATTTGTTGATACAACCATAAAATGATCATTACCCCCATAAATTGATAATTATCACACCCCATTTAACTATAACGCTCTGATCATAGTCAGACCAACATTGCTACGACCCGTATTCGCACCGACAC
relative integration efficiency (log2) [1]: -1.23 ± 0.22 | relative integration efficiency (log2) [2]: 2.423 ± 0.013

ACATTTGTTGATACAACCATAAAATGATAATTACACCCATAAATTGATAATTATCACACCCATAAATTGATATTGCCTCTCCGACCCGGAAGAGGGCGCCTAGAATTGGGAGTGGTCGCACCGACAC
relative integration efficiency (log2) [1]: 0.139 ± 0.13 | relative integration efficiency (log2) [2]: 0.134 ± 0.075

ACATTTGTTGATACAACCATAAAATCATCATTACACCCATCAATTGATAATTATCACACCCAATTTAACTATAACGCTCTGATCATAGTCAGACCAACATTGCTACGACCCGTATTCGCACCGACAC
relative integration efficiency (log2) [1]: -4.74 ± 0.38 | relative integration efficiency (log2) [2]: -0.508 ± 0.42

ACATTTGTTGATACAACCATAAAATGATAATTACACAACGCCCGGTCGCCGGCGACACAAACGCCCGGTCGCGGTAAGAGGATCATAGTCAGACCAACATTGCTACGACCCGTATTCGCACCGACAC
relative integration efficiency (log2) [1]: -2.42 ± 0.23 | relative integration efficiency (log2) [2]: 0.604 ± 0.2

ACATTTGTTGATACAACCATTAAATGATAATTACACCCATTAATTGATAATTATCACACCCATTAATTGATATTGCCTCTGATCATAGTCAGACCAACATTGCTACGACCCGTATTCGCACCGACAC
relative integration efficiency (log2) [1]: -0.515 ± 0.021 | relative integration efficiency (log2) [2]: -0.0993 ± 0.43

ACATTTGTTCATACAACCATAAAATGATAATTACCACCCCTAAATTGATAATTATCACACCCATTTAACTATAACGCTCTGATCATAGTCAGACCAACATTGCTACGACCCGTATTCGCACCGACAC
relative integration efficiency (log2) [1]: -4.21 ± 0.08 | relative integration efficiency (log2) [2]: -2.87 ± 0.85

ACATTTGTTGATACAACCATAAAATGTATTAATCACCCATAAATTGTATTAATTCACACCCATAAATTGTATAACGCTCTGATCATAGTCAGACCAACATTGCTACGACCCGTATTCGCACCGACAC
relative integration efficiency (log2) [1]: -4.24 ± 0.14 | relative integration efficiency (log2) [2]: -2.39 ± 0.35
